This note sets out measurements from paper doi:10.1101/2021.12.22.473891 (bioRxiv, 2021).

The assay addresses recombinant human Top2a ΔC (1-1217), lacking the unstructured C-terminal domain (human, UniProt P11388 1-1217). In words: native gel or EMSA. A general note: In EMSA bound probe runs differently from free probe, usually more slowly.

recombinant human Top2a ΔC (1-1217), lacking the unstructured C-terminal domain, sequence (P11388 1-1217, stated change not applied): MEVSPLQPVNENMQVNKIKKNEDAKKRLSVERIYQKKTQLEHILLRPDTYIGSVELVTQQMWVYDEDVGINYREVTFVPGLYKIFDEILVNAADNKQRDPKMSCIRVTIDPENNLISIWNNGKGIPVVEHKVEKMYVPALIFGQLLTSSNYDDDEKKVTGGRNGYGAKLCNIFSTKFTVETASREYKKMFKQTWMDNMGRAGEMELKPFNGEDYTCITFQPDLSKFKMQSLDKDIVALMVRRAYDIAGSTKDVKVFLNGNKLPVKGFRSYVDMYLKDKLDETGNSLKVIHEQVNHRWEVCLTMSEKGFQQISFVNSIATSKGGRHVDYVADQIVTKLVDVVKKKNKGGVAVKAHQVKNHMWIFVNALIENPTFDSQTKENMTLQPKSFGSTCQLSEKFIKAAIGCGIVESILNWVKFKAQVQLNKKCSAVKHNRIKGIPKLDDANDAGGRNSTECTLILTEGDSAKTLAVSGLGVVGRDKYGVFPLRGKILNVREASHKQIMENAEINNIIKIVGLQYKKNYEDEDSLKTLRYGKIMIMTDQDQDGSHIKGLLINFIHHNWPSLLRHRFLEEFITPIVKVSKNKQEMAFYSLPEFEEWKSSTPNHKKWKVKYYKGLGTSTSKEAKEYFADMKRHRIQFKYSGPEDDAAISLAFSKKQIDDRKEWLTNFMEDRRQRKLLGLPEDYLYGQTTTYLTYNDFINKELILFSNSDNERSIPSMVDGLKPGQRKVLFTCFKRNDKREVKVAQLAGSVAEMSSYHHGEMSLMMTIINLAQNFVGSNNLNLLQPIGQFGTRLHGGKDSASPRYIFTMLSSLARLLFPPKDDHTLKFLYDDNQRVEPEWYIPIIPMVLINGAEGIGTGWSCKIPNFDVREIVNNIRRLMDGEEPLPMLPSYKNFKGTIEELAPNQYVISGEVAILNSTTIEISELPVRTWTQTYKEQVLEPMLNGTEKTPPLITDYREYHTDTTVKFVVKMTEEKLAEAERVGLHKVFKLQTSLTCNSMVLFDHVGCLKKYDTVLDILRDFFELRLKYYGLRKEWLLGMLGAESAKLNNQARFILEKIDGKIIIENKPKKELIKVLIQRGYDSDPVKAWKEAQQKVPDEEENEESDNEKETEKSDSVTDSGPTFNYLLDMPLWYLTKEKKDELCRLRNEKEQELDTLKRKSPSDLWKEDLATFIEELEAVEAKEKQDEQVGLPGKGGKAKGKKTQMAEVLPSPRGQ

B1: human dock II domain, full-length variant (RPA1^1060-1155) with C-terminal His-MBP-tag (domain or fragment)
chain: ADPKKALHHFRAIKKWQSKHPNTLLRRGAFLSYSQKIQEAVKALKLESENRNGRSPGTQEMLRMWYELDEESRRKYQKKAAACPDPSLSVWRPDIY
As for B1, the binding result is “binds”.
